From patent publication US20240352105A1, “COMPOSITIONS AND METHODS FOR NEUTRALIZING ANTIGENS” (PACAGEN, INC, priority 2023, published 2024)
Several values for one entry are separate records, joined by “and”; a condition that tells them apart may be missing. Equal entries are not always repeated. No end group written: not given here.

Experiments:
[1] = biological target: T1, recombinant His-tagged Der p1 (dust mite, UniProt P08176 99-320, limits assumed); assay: ELISA, Der p1 on plate, biotinylated peptide at 10, duplicate 1
T1 construct: Recombinant His-tagged protein made by the applicant; also called Der p1-His; Der pl; not shown: His tag
T1 sequence (looked up): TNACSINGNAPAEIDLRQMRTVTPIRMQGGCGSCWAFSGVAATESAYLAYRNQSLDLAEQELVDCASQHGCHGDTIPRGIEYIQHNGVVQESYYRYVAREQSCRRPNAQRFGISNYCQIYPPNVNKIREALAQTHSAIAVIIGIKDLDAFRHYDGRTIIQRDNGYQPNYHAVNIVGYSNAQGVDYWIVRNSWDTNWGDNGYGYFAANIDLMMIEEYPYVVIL
Procedure: (§1) An ELISA was used to validate identified peptides. Der p1 was bound to the bottom of a plate. Different concentrations of the chosen (biotinylated) peptides were added and then washed. Then, HRP-streptavidin (which binds to the biotin) was added and an OD at 450 nm is measured. Duplicate measurements are separated by commas.

[2] = biological target: T1, recombinant His-tagged Der p1; assay: ELISA, Der p1 on plate, biotinylated peptide at 10, duplicate 2
Procedure: as §1

[3] = biological target: T1, recombinant His-tagged Der p1; assay: ELISA, Der p1 on plate, biotinylated peptide at 30, duplicate 1
Procedure: as §1

[4] = biological target: T1, recombinant His-tagged Der p1; assay: ELISA, Der p1 on plate, biotinylated peptide at 30, duplicate 2
Procedure: as §1

[5] = biological target: T1, recombinant His-tagged Der p1; assay: ELISA, Der p1 on plate, biotinylated peptide at 0.041, duplicate 1
Procedure: as §1

[6] = biological target: T1, recombinant His-tagged Der p1; assay: ELISA, Der p1 on plate, biotinylated peptide at 0.041, duplicate 2
Procedure: as §1

[7] = biological target: T1, recombinant His-tagged Der p1; assay: ELISA, Der p1 on plate, biotinylated peptide at 0.123, duplicate 1
Procedure: as §1

[8] = biological target: T1, recombinant His-tagged Der p1; assay: ELISA, Der p1 on plate, biotinylated peptide at 0.123, duplicate 2
Procedure: as §1

[9] = biological target: T1, recombinant His-tagged Der p1; assay: ELISA, Der p1 on plate, biotinylated peptide at 0.370, duplicate 1
Procedure: as §1

[10] = biological target: T1, recombinant His-tagged Der p1; assay: ELISA, Der p1 on plate, biotinylated peptide at 0.370, duplicate 2
Procedure: as §1

[11] = biological target: T1, recombinant His-tagged Der p1; assay: ELISA, Der p1 on plate, biotinylated peptide at 1.111, duplicate 1
Procedure: as §1

[12] = biological target: T1, recombinant His-tagged Der p1; assay: ELISA, Der p1 on plate, biotinylated peptide at 1.111, duplicate 2
Procedure: as §1

[13] = biological target: T1, recombinant His-tagged Der p1; assay: ELISA, Der p1 on plate, biotinylated peptide at 3.333, duplicate 1
Procedure: as §1

[14] = biological target: T1, recombinant His-tagged Der p1; assay: ELISA, Der p1 on plate, biotinylated peptide at 3.333, duplicate 2
Procedure: as §1

[15] = test system: known Der p1 antibody (clone 10B9); assay: Recombinant Der p1-His ELISA binding assay
Procedure: In order to obtain single variable domain on heavy chain, i.e., VHH, specific for dust mite allergen Der p1, a recombinant His-tagged Der p1 was prepared, which reached high purity, as shown via SDS-Page Western blotting in FIG. 8. To confirm this, an ELISA was performed measuring optical density when the recombinant Der p1-His is incubated with a known Der p1 antibody (clone 10B9). As summarized in Table 11, the recombinant Der p1-His was effectively bound by the antibody.

recombinant Fel d1-His = biological target: T2, recombinant Fel d1-His (Felis catus, UniProt P30438+P30440); assay: Recombinant Fel D1 His binding assay with positive control antibodies; parameters: species or system cat
T2 construct: His; made in house
T2 sequence (P30438 23-92): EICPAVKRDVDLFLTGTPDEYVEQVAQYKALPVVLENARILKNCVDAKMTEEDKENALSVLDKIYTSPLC
T2 sequence (P30440 18-109): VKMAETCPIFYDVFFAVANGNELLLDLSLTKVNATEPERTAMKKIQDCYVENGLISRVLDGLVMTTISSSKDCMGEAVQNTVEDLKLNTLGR
Procedure: In order to obtain single variable domain on heavy chain, i.e., VHH, specific for cat allergen Fel D1, a recombinant His-tagged Fel D1 was prepared, which reached high purity, as shown via SDS-Page Western blotting in FIG. 14. To confirm this, an ELISA was performed measuring optical density when the recombinant Fel d1-His is incubated with two known Fel D1 antibodies which are summarized in Table 18. As summarized in Table 19, the recombinant Fel d1-His was effectively bound by both antibodies.

Fel D1 = assay: ELISA binding assay of anti-Fel d1 VHH clones on Fel D1 epitopes; parameters: species or system cat; conditions: Epitope Recognized FAVANGNELLLDLS (SEQ ID NO: 59)
Procedure: 2 microgram per milliliter (μg/mL) target antigen is coated in a 96-well plate and ELISA assay is performed after incubation with candidate VHHs. The binding EC50 of each clone is calculated using Prism GraphPad. The positive control antibody is involved as an internal control.
Four distinct epitopes of Fel D1 were selected to be used for further identification. Peptides were synthesized for the four epitopes for VHH identification.
Isolated VHH clones were further validated by performing an ELISA assay as described in Example 1. Binding results are shown in FIG. 15B-15D for the epitope of SEQ ID NO: 61. Binding results are shown in FIG. 16 for the epitope of SEQ ID NO: 59. Binding results are shown in FIG. 17A-17E for the epitope of SEQ ID NO: 60. Binding results are shown in FIG. 18 for the epitope of SEQ ID NO: 58.

[16] = Thermostability (Tm, Tonset, Tagg) by Nanotemper DSF; format: physicochemical; parameters: key to Tm2 / Tagg / Tm1 / Tm / Tm3 / Tonset / Tonset ø (mean) / Tagg ø (mean): temperatures in °C
In short: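 Isolated VHH clones were heated from 20 °C to 95 °C at 1 °C/min using DSF. Tm, Tonset and Tagg were derived from the thermal curves. Where several melting transitions occurred, each was reported in order (Tm1, Tm2, etc.).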

[17] = Volume of Fel D1-His 10 μL (concentration ~1 μg/μL)
[18] = Volume of Fel D1-His 50 μL (concentration ~1 μg/μL)
[19] = Volume of Fel D1-His 100 μL (concentration ~1 μg/μL)
[20] = Average of two replicates, anti-Fel d1 VHH
[21] = Average of two replicates, anti-Fel d1 VHH, in °C (unit assumed)
[22] = Replicate 1, in °C (unit assumed)
[23] = Replicate 2, in °C (unit assumed)

B1: SDAB22110-2-G1 (peptide)
peptide: VVAFGIS
modifications: also: biotinylated, site not given here
notes: 7-amino acid peptide from a phage display library
[1]
  OD450: 0.323 OD450
[2]
  OD450: 0.293 OD450
[3]
  OD450: 0.666 OD450
[4]
  OD450: 0.629 OD450
[5]
  OD450: 0.057 OD450
[6]
  OD450: 0.062 OD450
[7]
  OD450: 0.082 OD450
[8]
  OD450: 0.073 OD450
[9]
  OD450: 0.088 OD450
[10]
  OD450: 0.082 OD450
[11]
  OD450: 0.102 OD450
[12]
  OD450: 0.109 OD450
[13]
  OD450: 0.147 OD450
[14]
  OD450: 0.145 OD450

B2: Der p1-His: recombinant His-tagged dust mite allergen Der p1 (protein)
chain: TNACSINGNAPAEIDLRQMRTVTPIRMQGGCGSCWAFSGVAATESAYLAYRNQSLDLAEQELVDCASQHGCHGDTIPRGIEYIQHNGVVQESYYRYVAREQSCRRPNAQRFGISNYCQIYPPNVNKIREALAQTHSAIAVIIGIKDLDAFRHYDGRTIIQRDNGYQPNYHAVNIVGYSNAQGVDYWIVRNSWDTNWGDNGYGYFAANIDLMMIEEYPYVVIL
modifications: left off: small tags and cut ends
[15]; Der p1-His Concentration 0.00064 μg/mL
  OD at 450 nm: 0.13 and 0.12
[15]; Der p1-His Concentration 0.016 μg/mL
  OD at 450 nm: 0.20 and 0.17
[15]; Der p1-His Concentration 0.08 μg/mL
  OD at 450 nm: 0.58 and 0.49
[15]; Der p1-His Concentration 0.4 μg/mL
  OD at 450 nm: 1.80 and 1.87
[15]; Der p1-His Concentration 2 μg/mL
  OD at 450 nm: 4.03 and 4.31
[15]; Der p1-His Concentration 10 μg/mL
  OD at 450 nm: 4.37 and 4.40

B3: 370VH + 378VL: known Fel D1 positive control antibody, heavy chain SEQ ID NO: 64, light chain SEQ ID NO: 65 (antibody, V domains shown)
VH: EVQLVESGGGLAQPGGSLRLSCAASGFTFNNYAMTWVRQAPGKGLDWVSAISDSGRSTFSADSVKGRFTISRDNSKNTLYLQMDSLRAEDTALYYCAKHRNWNYPVFDYWGQGTLVTVSS
VL: DIQLTQSPSFLSASVGDRVTITCWASQGISSYLAWYQQKPGKAPKLLIYSASTLQSGVPSRFSGSGSGTEFTLTISSLQPEDFATYYCQQLNSYPFTFGPGTKVDIK
Recombinant Fel d1-His; [17]
  OD450 Using Positive Control: 4.47 and 4.44
Recombinant Fel d1-His; [18]
  OD450 Using Positive Control: 4.55 and 4.53
Recombinant Fel d1-His; [19]
  OD450 Using Positive Control: 4.60

B4: 18VH + 378VL: known Fel D1 positive control antibody, heavy chain SEQ ID NO: 66, light chain SEQ ID NO: 65 (antibody, V domains shown)
VH: EVQLVESGGGLVKPGGSLRLSCAASGFTFRNYNINWVRQAPGKGLEWVSLISGSSSYIYYADSVKGRFTVSRDNAKNSLYLQMNSLRAEDTAVYYCARRTLSYYVMDVWGQGTTVTVSS
VL: DIQLTQSPSFLSASVGDRVTITCWASQGISSYLAWYQQKPGKAPKLLIYSASTLQSGVPSRFSGSGSGTEFTLTISSLQPEDFATYYCQQLNSYPFTFGPGTKVDIK
Recombinant Fel d1-His; [17]
  OD450 Using Positive Control: 4.47 and 4.44
Recombinant Fel d1-His; [18]
  OD450 Using Positive Control: 4.55 and 4.53
Recombinant Fel d1-His; [19]
  OD450 Using Positive Control: 4.60

B5: SDAB22110-3-1-D9-1: anti-Fel d1 VHH clone, SEQ ID NO: 52 (protein)
VHH: AVQLVESGGGLVQPGGSLRLSCIISGFTSVSYSIVWFRQAPGKGREGVSCIGSSGGSTDYIDSVKGRFTISRDSAKNTVYLQMDCLKPEDTAVYYCAALRDVYRLCVIDYMNNDYWGQGTQVTVSS
Fel D1
  EC50: 12.940 µg/mL
[16]; [20]
  Tagg ø (mean): 42.78
  Tonset ø (mean): 32.74
[16]; [21]
  Tm ø (mean), first melting point (Tm1): 41.13
  Tm ø (mean), second melting point (Tm2): 52.88
[16]; Replicate 1
  Tagg: 42.76
  Tonset: 32.57
[16]; [22]
  Tm, first melting point (Tm1): 41.01
  Tm, second melting point (Tm2): 52.86
[16]; Replicate 2
  Tagg: 42.80
  Tonset: 32.90
[16]; [23]
  Tm, first melting point (Tm1): 41.25
  Tm, second melting point (Tm2): 52.91
[16]; anti-Fel d1 VHH
  Tagg: 42.30
[16]; anti-Fel d1 VHH, single melting point, in °C (unit assumed)
  Tm: 47.50
